What is called Kd is the equilibrium constant for the complex coming apart.

In the assay the target is SARS-CoV-2 Spike protein extracellular domain (S-ECD), as used in ELISA and BLI (SARS-CoV-2, UniProt P0DTC2 14-1208). Kind of assay: BLI. (In general: In BLI a coated tip is dipped into the sample, and binding shifts an interference pattern.)

B1: 2M-10B11 (human monoclonal antibody) (antibody, V domains shown)
VH: EVQLVESGGGLVQPGGSLRLSCAASGFTVSSNYMSWVRQAPGKGLEWVSVIYSGGSTYYADSVKGRFTISRDNSKNTLYLQMNSLRAEDTAVYYCARATWLRGVMDVWGQGTTVTVSS
VL: QSALTQPHSVSESPGKTVTISCTGSSGSIASNYVQWYQQRPGSAPTTVIYEDNQRPSGVPDRFSGSIDSSSNSASLTISGLKTEDEADYYCQSYDSSNHWVFGGGTKLTVL
B1 yielded a Kd of 0.342 nM.

B2: 4A8 (human monoclonal antibody) (antibody, V domains shown)
VH: EVQLVESGAEVKKPGASVKVSCKVSGYTLTELSMHWVRQAPGKGLEWMGGFDPEDGETMYAQKFQGRVTMTEDTSTDTAYMELSSLRSEDTAVYYCATSTAVAGTPDLFDYYYGMDVWGQGTTVTVSS
VL: EIVMTQSPLSSPVTLGQPASISCRSSQSLVHSDGNTYLSWLQQRPGQPPRLLIYKISNRFSGVPDRFSGSGAGTDFTLKISRVEAEDVGVYYCTQATQFPYTFGQGTKVDIK
B2 showed a Kd of 0.996 nM.

These data come from article PMC7319273 (2020).
